Test results as given in patent US20180223372A1, “IDENTIFICATION OF PREDICTIVE BIOMARKERS ASSOCIATED WITH WNT PATHWAY INHIBITORS” (OncoMed Pharmaceutical, Inc., priority 2015, published 2018).

What was measured:
OMP-LU02 lung tumor = assay: OMP-LU02 NSCLC xenograft, OMP-18R5 vs control antibody; assay type: in vivo, NOD/SCID mice; conditions: OMP-LU02 adenocarcinoma; 15-20 mg/kg intraperitoneally weekly; tumor volume vs control antibody
Source text: (§1) The non-small cell lung cancer (NSCLC) tumor xenograft models OMP-LU02, OMP-LU11, OMP-LU24, OMP-LU25, OMP-LU33, OMP-LU45, and OMP-LU56 (and other OncoMed models described herein) were established at OncoMed Pharmaceuticals from minimally passaged, patient-derived tumor specimens. The tumor specimens were examined by a pathologist and classified as lung tumors. OncoMed relies on these classifications unless further analyses are done on any specific tumor and a reclassification is deemed necessary. […] Tumor-bearing mice were randomized into groups (n=8-10 per group) and treated with control antibody or anti-FZD antibody OMP-18R5. The antibodies were dosed at 15-20 mg/kg and were administered intraperitoneally on a weekly basis. […] Data are expressed as mean±S.E.M.
(§2) To determine if a tumor was responsive to anti-FZD antibody OMP-18R5, tumor volume data from mice treated with the control antibody were compared with tumor volume data from mice treated with OMP-18R5.

OMP-LU11 lung tumor = assay: OMP-LU11 NSCLC xenograft, OMP-18R5 vs control antibody; assay type: in vivo, NOD/SCID mice; conditions: OMP-LU11 squamous cell carcinoma; 15-20 mg/kg intraperitoneally weekly; tumor volume vs control antibody
Source text: as §1, §2

OMP-LU24 lung tumor = assay: OMP-LU24 NSCLC xenograft, OMP-18R5 vs control antibody; assay type: in vivo, NOD/SCID mice; conditions: OMP-LU24 squamous cell carcinoma; 15-20 mg/kg intraperitoneally weekly; tumor volume vs control antibody
Source text: as §1, §2

OMP-LU25 lung tumor = assay: OMP-LU25 NSCLC xenograft, OMP-18R5 vs control antibody; assay type: in vivo, NOD/SCID mice; conditions: OMP-LU25 large cell carcinoma; 15-20 mg/kg intraperitoneally weekly; tumor volume vs control antibody
Source text: as §1, §2

OMP-LU33 lung tumor = assay: OMP-LU33 NSCLC xenograft, OMP-18R5 vs control antibody; assay type: in vivo, NOD/SCID mice; conditions: OMP-LU33 carcinoma; 15-20 mg/kg intraperitoneally weekly; tumor volume vs control antibody
Source text: as §1, §2

OMP-LU45 lung tumor = assay: OMP-LU45 NSCLC xenograft, OMP-18R5 vs control antibody; assay type: in vivo, NOD/SCID mice; conditions: OMP-LU45 adenocarcinoma; 15-20 mg/kg intraperitoneally weekly; tumor volume vs control antibody
Source text: as §1, §2

OMP-LU56 lung tumor = assay: OMP-LU56 NSCLC xenograft, OMP-18R5 vs control antibody; assay type: in vivo, NOD/SCID mice; conditions: OMP-LU56 carcinoma; 15-20 mg/kg intraperitoneally weekly; tumor volume vs control antibody
Source text: as §1, §2

[1] = test system: genes in the Wnt, Notch, and stem cell pathways; Wnt pathway target genes including AXIN2 and LEF1; assay: pharmacodynamics (PD) biomarker analysis; assay type: in vivo; conditions: data not shown
Procedure: In addition, a pharmacodynamics (PD) biomarker analysis was performed and confirmed inhibition of genes in the Wnt. Notch, and stem cell pathways by treatment with OMP-18R5.

B1: OMP-18R5: anti-FZD IgG2 antibody binding FZD1, FZD2, FZD5, FZD7, FZD8; ATCC deposit PTA-9541; heavy/light chain SEQ ID NO:11 and 12 (antibody)
heavy: EVQLVESGGGLVQPGGSLRLSCAASGFTFSHYTLSWVRQAPGKGLEWVSVISGDGSYTYYADSVKGRFTISSDNSKNTLYLQMNSLRAEDTAVYYCARNFIKYVFANWGQGTLVTVSSASTKGPSVFPLAPCSRSTSESTAALGCLVKDYFPEPVTVSWNSGALTSGVHTFPAVLQSSGLYSLSSVVTVPSSNFGTQTYTCNVDHKPSNTKVDKTVERKCCVECPPCPAPPVAGPSVFLFPPKPKDTLMISRTPEVTCVVVDVSHEDPEVQFNWYVDGVEVHNAKTKPREEQFNSTFRVVSVLTVVHQDWLNGKEYKCKVSNKGLPAPIEKTISKTKGQPREPQVYTLPPSREEMTKNQVSLTCLVKGFYPSDIAVEWESNGQPENNYKTTPPMLDSDGSFFLYSKLTVDKSRWQQGNVFSCSVMHEALHNHYTQKSLSLSPGK
light: DIELTQPPSVSVAPGQTARISCSGDNIGSFYVHWYQQKPGQAPVLVIYDKSNRPSGIPERFSGSNSGNTATLTISGTQAEDEADYYCQSYANTLSLVFGGGTKLTVLGQPKAAPSVTLFPPSSEELQANKATLVCLISDFYPGAVTVAWKADSSPVKAGVETTTPSKQSNNKYAASSYLSLTPEQWKSHRSYSCQVTHEGSTVEKTVAPTECS
modifications: Heavy chain amino acid sequence; Light chain amino acid sequence
In the case of B1, the Classification (OMP-LU02 lung tumor) is reported as “Non-responder”, the Classification (OMP-LU11 lung tumor) is reported as “Responder” and the Classification (OMP-LU24 lung tumor) is reported as “Responder”. For the same molecule, the Classification (OMP-LU25 lung tumor) was “Non-responder”, the Classification (OMP-LU33 lung tumor) was “Responder” and the Classification (OMP-LU45 lung tumor) was “Non-responder”. The Classification (OMP-LU56 lung tumor) was “Non-responder”, the “Wnt pathway target genes including AXIN2 and LEF1” value ([1]; OMP-18R5 as a single agent) was “down-regulated significantly” and the “genes in the Wnt, Notch, and stem cell pathways” value ([1]; treatment with OMP-18R5) was “inhibition”.
